Experiment: soluble on expression in E. coli; label from the status in PepcDB or PDB records

Sequence	soluble on expression in E. coli
MLRITELKLPIDHPEEDLRVALLQHLGIDSSELLDFTLFKRSYDARKKSSELCFIYTIDFQVKDEAALLRKLANDRHVGPAPDVSYKVVGHAPEGLSERPIVVGFGPCGIFAGLLLAQMGFKPIILERGTEVRQRTKDTWALWRKNVLNAESNVQFGEGGAGTFSDGKLYSQIKDPKFIGRKVLHEFVKAGAPEEILYVSKPHIGTFRLTGVVENMRHQIEALGGEVRFQQRVTDLMIEDGQLLGVQLDSGEQIESRHVILALGHSARDTFRMLHGRGVFMEAKPFSVGFRIEHPQSLIDRARLGKYAGHPKLGAADYKLVHHASNGRSVYSFCMCPGGTVVAATSEPGRVVTNGMSQYSRNERNANSGIVVGISPEQDFPGSPLAGIELQERLESHAYLLGGSNYEAPAQLVGDFIAGRASTALGSVEPSYKPGVKLVDLAEALPAFAIEAIREALPAFDKQIKGFSLHDAVLTGIETRTSAPLRITRGPTMQSLNTKGLYPAGEGAGYAGGILSAGVDGIRVAEALVRDMLGIEGLEHHHHHH	soluble
MGSDKIHHHHHHMESLSEGTTAGYQQIHDGIIHLVDSARTETVRSVNALMTATYQEIGRRIVEFEQGGEARAAYGAQLIKRLSKDLCLRYKRGFSAKNLRQMRLFYLFFQHVEIHQTMSGELTPLGIPQTPSAEFPSAKIWQTLSAKSFPLPRSTYVRLLSVKNADARSFYEKETLRCGWSVRQLERQIATQFYERTLLSHDKSAMLQQHAPAETHILPQQAIRDPFVLEFLELKDEYSESDFEEALINHLMDFMLELGDDFAFVGRQRRLRIDDNWFRVDLLFFHRRLRCLLIVDLKVGKFSYSDAGQMNMYLNYAKEHWTLPDENPPIGLVLCAEKGAGEAHYALAGLPNTVLASEYKMQLPDEKRLADELVRTQAVLEEGYRRR	not soluble
MKQVAKGLQMEGNFGTAHVYRSSLNAIIAYRGKGDFTFHEVTPEWLKGFEIHLRGRGCSWNTVSTYLRTFRAVYNRAVDCRGAVYVPHLFRSVYTGTRADRKRALCDEDMQKVFAKLPSSPAVTPAMRRTQELFVLMFLLRGLPFVDLAYLRKSDLHDNVITYRRRKTGRPLSVTLTREAMVLLKRYMNRDSSSPYLFSLLESREGTKEAYREYQLALRSFNQQLLLLGQLLGLGDRLSSYTARHTWATTAYYCEIHPGIISEAMGHSSITVTETYLKPFRNKKIDEANQLVTDFVKRIVTGLIA	not soluble
MGSDKIHHHHHHMDKDERLHYLDSLERLRGSKVLVYFAYTPLDDSILVPLYEQLKAIGHTEKIDLLLHSYGGAVDTPYKVVMLIREFCNEFGVIVPFVAKSAASMLVLGADEVVMGPISELGPIDPLIKHPIYKELWVPVQAIRYCIDYLQRSIESNPNPELVTGIITPMINKLDPWLIGDYEKALKASHQYAEALLSRYMLKDNPELVPVVTRALTEGYFSHGYPIGRQEAKELGLRVTEAEDELWDVIWSLYRGYEELFSTCDSGDRV	not soluble
MAHHHHHHMNKTNEVDDWTEWLDDDDEKREDEFHIDSTKDEAIKKKILQNNLDDIADFLDIGDNKKKKVEETENKVKPKVTEKIITLESTPLNSIKDCETLGEILAGRIRKCKAKSVALERFISIIITASESKLEDKDLLTVSRKLQEMVSQREKKKRYAQINKKKPNEVKNSIKNYEDEVDMIYGDLSYDEDDYEEEVVDEYLENF	soluble
MGSDKIHHHHHHMIRIGIDVGGTNTDAVVMDGTQVVAGVKSATTADVMSGVVNALKDVLAASRMAASAVDVVMIGTTHFTNAVVQRRDLAPTAAVRLGLPATASLPPMVDWPEDLKTAIGNHAWLAHGGNEFDGRVISPLNEEELLGIAAEIKVRGINSIAITSVLSPVSNEFEKRAAEIFAKALPGAHITLSSDIGRIGLLERENAAIMNACLRDLSAHVIEAFRKAIAETGIRGRFFLTQNDGTLMDAAFAEKFPVLTFASGPTNSMRGAAFLSGVDDAIVVDIGGTTSDVGSLQNGFPRQATVAVEVGGVRTNFRMPDVFSIGLGGGSLVVDGEHGVKVGPTSVGYRINTEALIFGGETLTTTDITVAAGNAELGDKARVAQLPKDLLDRTQAKILSMLEDCVERSRLSPDPLPVIVVGGGSILVNGPIGGLEVIKPNYFGVANAVGAAIAQVSGEIDRVYALAEIGRDQALDDAKARAIDAAVAAGASRDSVEIVDVEDVPLAYLPGNATRVRVKAVGELHVA	not soluble
MWGETFDDFENDEGEMAMAKQNLIAEPARADFTFAKLPLGIQPVDFMKTHFAETAGKSMQFRKGTTTLAFVYEPATPADKGGIIVAVDSRASSGEYISSKSVMKILDIGDRMVATMAGGAADCQFWTRIVAKYCTLYELREKTSITVSAASKYFANTLYGYRGQGLSVGSMVAGYDKKGPQIFKVDSEGDRCQLKVCSVGSGSLNAYGILDNHYKPKMTDDEARKLGLRAIMHATYRDSGSGGVCNLCHITPTEKIRLPPMDVSKLWYEFADELGRDITYNPVE	soluble

Source: the DeepSol protein solubility set
